Measured values reported in US9434785.

T1: recombinant human OX40L (extracellular domain with FLAG peptide motif and isoleucine zipper motif) (human, UniProt P23510 51-183, biotinylated in the HTRF assays (sites not given))
T1 construct: extracellular domain; It was biotinylated for HTRF and is not described as biotinylated for SPR or the T-cell assay; also called hOX40L; recombinant hOX40L; not shown: FLAG peptide motif and isoleucine zipper motif
T1 sequence (looked up): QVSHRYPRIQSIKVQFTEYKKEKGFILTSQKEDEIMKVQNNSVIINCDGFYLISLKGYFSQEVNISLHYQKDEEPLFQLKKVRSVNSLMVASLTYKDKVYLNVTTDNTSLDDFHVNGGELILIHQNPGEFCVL


Tests used:
[1] = molecular target: T1, recombinant human OX40L (extracellular …); assay: SPR (ProteOn XPR36), apparent affinity, antibody captured on anti-mouse IgG, hOX40L at 256 nM, 1:1 model, 25 C
Method: SPR analysis was carried out using the ProteOn™ XPR36 Array System (BioRad). Anti-mouse IgG (GE Healthcare BR-1008-38) was immobilised on a GLM biosensor surface using amine coupling, the surface was then blocked using 1 M ethanolamine. Test antibodies were captured on this surface and recombinant hOX40L (human and rhesus) were used at a single concentration of 256 nM, binding sensorgrams were double referenced using a buffer injection (i.e. 0 nM) to remove baseline drift and injection artefacts. Apparent affinities for the OX40L-antibody interaction were determined using the 1:1 model inherent to the ProteOn XPR36 analysis software. The assay was run using HBS-EP (Teknova) as running buffer and carried out at 25° C.

[2] = molecular target: T1, recombinant human OX40L (extracellular …); assay: cell-based or functional assay
[3] = molecular target: T1, recombinant human OX40L (extracellular …); assay: HTRF ligand/receptor neutralisation; competitor OX40RFc-AF647 on biotinylated hOX40L; mean of three experiments, SEM +/-0.17
Method: (§1) Profiling of Fully Human Recombinant Anti-OX40L Antibodies in HTRF Ligand/Receptor Neutralisation Assay In order to determine whether recombinantly expressed fully human purified IgG inhibit human OX40L binding to OX40RFc the following method was carried out. Fully human purified IgG or other inhibitor were tested in order to establish the clone potency as measured by IC$50$ values in the assay. Antibodies recombinantly expressed and purified were titrated by diluting in HTRF assay buffer and 5 μL of this titration transferred to a white 384 well low volume non-binding surface polystyrene plate (Greiner). Biotinylated OX40L was diluted in HTRF assay buffer to a working concentration of 2.4 nM and 5 μL added. OX40RFc directly labelled with AF647 was then diluted to working concentration of 10 nM and 5 μL added. […] Plates were covered, protected from light and incubated at room temperature for 3 hrs prior to reading time resolved fluorescence at 620 nm and 665 nm emission wavelengths using an EnVision plate reader (Perkin Elmer). Data were analysed by calculating delta F as described in Equation 4 and percentage of receptor for each sample according to Equation 5 or in some cases Equation 6. IC$50$ values were determined using GraphPad Prism software by curve fitting using a four-parameter logistic equation (Equation 7) (FIG. 1).

[4] = molecular target: T1, recombinant human OX40L (extracellular …); assay: HTRF ligand/receptor neutralisation; competitor OX40RFc-AF647 on biotinylated hOX40L; mean of three experiments, SEM +/-0.04
Method: as §1

| Binder | Kd [1] [nM] | Primary T-cell Assay IC50 nM (recombinant OX40L induced IL2 release from primary isolated T-cells) [2] [nM] | IC50 [3] [nM] | IC50 [4] [nM] |
| --- | --- | --- | --- | --- |
| 9H04 (hybridoma) (antibody, V domains shown, Murine/human chimeric antibody purified from hybridoma supernatant (human variable domains, mouse constant regions); also called 09H04) VH: QVQLVESGGGLVKPGGSLRLSCAASRFTLSDYYMTWIRQAPGKGLEWVSYISSSGNTIYYADSVKGRFTISRDNAKNSLYLQMNSLRAEDTAVYYCARDLSGSYWDYYYGMDVWGQGTTVTVSS VL: AIQLTQSPSSLSTSVGDRVTIACRASQGINNALAWYQQKPGKAPKLLIYDASSLESGVPSRFSGSGSGTDFTLTISSLQPEDFATYYCQQFNSYPRTFGQGTKVEIK | 5.3 |  |  |  |
| 2D10 (human) (antibody, human IgG4 S228P, kappa, V domains shown, Recombinant fully human IgG4-PE (Ser228Pro, Leu235Glu) with a human kappa light chain; also called 02D10; 2D10 IgG4PE) VH: EVQLVESGGGLVQPGGSLRLSCAASGFTFSNYAMNWVRQAPGKGLEWVSTISGSGGATRYADSVKGRFTISRDNSRNTVYLQMNSLRVEDTAVFYCTKDRLIMATVRGPYYYGMDVWGQGTTVTVSS VL: DIQMTQSPSSLSASVGDRVTITCRASQSISSYLNWYQQKPGKAPNLLIYAASSLQSGVPSRFSGSGSETDFTLTISSLQPEDFATYYCQQSHSVSFTFGPGTKVDIKR |  | 0.81 |  | 0.75 |

Results, then the binder that gave them:

| Kd [1] [nM] | Primary T-cell Assay IC50 nM (recombinant OX40L induced IL2 release from primary isolated T-cells) [2] [nM] | IC50 [3] [nM] | IC50 [4] [nM] | Binder |
| --- | --- | --- | --- | --- |
| 2.2 |  |  |  | 19H01 (hybridoma) (antibody, V domains shown, Murine/human chimeric antibody purified from hybridoma supernatant (human variable domains, mouse constant regions)) VH: not shown VL: DIQMTQSPSSLSASVGDRVTITCRASQGISNYLAWYQQKPGKIPKLLIYAASTLQSGVPSRFSGSGSGTDFTLTISSLQPEDVATYYCQKYNSAPRTFGQGTKVEIK |
|  | 0.83 | 1.2 |  | 10A07 (human) (antibody, V domains shown, also called 10A7; mAb 10A7) VH: EVQLVESGGVLVQPGGSLRLSCAASGFTFSSYIMTWVRQAPGKGLEWVSGISGSGGGTYYADSMKGRFTISRDNSKNTLYLQMNSLRVEDTAVYYCAKDRLGPITLVRGGYYYGMDVWGQGTTVTVSS VL: DIQMTQSPSSLSASVGDRVTITCRASQSISDYLNWYQQKPGKAPKFLIYAASSLQSGVPSRFSGSGSGTDFTLTVSSLQPEDFATYYCQQSYSTPRTFGQGTRVEIK |
